# Laboratory results published in patent US20250090676A1 (SUTRO BIOPHARMA, published 2025).
# Numbering of substitutions follows the chain as printed.
# B1: SRP1848-C05 (antibody, V domains shown)
# VH: EVQLVESGGGLVQPGGSLRLSCAASGFNIRKYSIHWVRQAPGKGLEWVGDIFPIDGINDYADSVKGRFTISADTSKNTAYLQMNSLRAEDTAVYYCARGSWSWKAGYGYYLDYWGQGTLVTVSS
# VL: not shown
# notes: IgG with common trastuzumab LC, cell-free expressed, HIS- and FLAG-tagged; also called Antibody 21
# B2: SRP1848-D10 (antibody, V domains shown)
# VH: EVQLVESGGGLVQPGGSLRLSCAASGFNISRNSIHWVRQAPGKGLEWVGWISPNDGTTDYADSVKGRFTISADGSKNTAYLQMNSLRAEDTAVYYCARGAWSWRSGYGYYIDYWGQGTLVTVSS
# VL: not shown
# notes: IgG with common trastuzumab LC, cell-free expressed, HIS- and FLAG-tagged; also called Antibody 30
# B3: SRP1848-D02 (antibody, V domains shown)
# VH: B2 VH with R31H, S33Y, W50G, S52T, N54Q, T57Y, G74T, S85R, S105A, I111L
# VL: not shown
# notes: IgG with common trastuzumab LC, cell-free expressed, HIS- and FLAG-tagged; also called Antibody 24
# B4: SRP1848-D09 (antibody, V domains shown)
# VH: B2 VH with R31N, N32Y, S33Y, W50G, T57Y, G74T, A100S, S105H, I111L
# VL: not shown
# notes: IgG with common trastuzumab LC, cell-free expressed, HIS- and FLAG-tagged; also called Antibody 29
# B5: SRP1848-E05 (antibody, V domains shown)
# VH: EVQLVESGGGLVQPGGSLRVSCAASGFNIGVYYIHWVRQAPGKGLEWVGGITPNDGYTDYADSVKGRFTISADTSKNTAYLQMNSLRAEDTAVYYCARGFWAWRSGYGYYLDYWGQGTLVTVSS
# VL: not shown
# notes: IgG with common trastuzumab LC, cell-free expressed, HIS- and FLAG-tagged; also called Antibody 34
# B6: SRP1848-C10 (antibody, V domains shown)
# VH: B1 VH with K31T, S33Y, D50G, F52S, I57Y, N58T, K104P
# VL: not shown
# notes: IgG with common trastuzumab LC, cell-free expressed, HIS- and FLAG-tagged; also called Antibody 23
# B7: SRP1848-D07 (antibody, V domains shown)
# VH: B5 VH with V20L, G30S, V31K, T52S, T69A
# VL: not shown
# notes: IgG with common trastuzumab LC, cell-free expressed, HIS- and FLAG-tagged; also called Antibody 28
# B8: SRP1848-E01 (antibody, V domains shown)
# VH: EVQLVESGGGLVQPGGSLRLSCAASGFNITNKYIHWVRQAPGKGLEWVGGITPFDGFTDYADSVKGRFTISADTSKNTAYLQMNSLRAEDTAVYYCARGSWSWPAGYGYYQDYWGQGTLVTVSS
# VL: not shown
# notes: IgG with common trastuzumab LC, cell-free expressed, HIS- and FLAG-tagged; also called Antibody 31
# B9: SRP1848-C07 (antibody, V domains shown)
# VH: B1 VH with N58T, V64M, K104P, L111Q
# VL: not shown
# notes: IgG with common trastuzumab LC, cell-free expressed, HIS- and FLAG-tagged; also called Antibody 22
# B10: SRP1848-E07 (antibody, V domains shown)
# VH: B2 VH with S30R, R31K, N32S, W50E, S52F, N54Y, T57S, S63N, G74T
# VL: not shown
# notes: IgG with common trastuzumab LC, cell-free expressed, HIS- and FLAG-tagged; also called Antibody 36
# B11: SRP1848-D05 (antibody, V domains shown)
# VH: B8 VH with T30S, N31I, K32S, T52S, F54I, F57Y, P104R, Q111L
# VL: not shown
# notes: IgG with common trastuzumab LC, cell-free expressed, HIS- and FLAG-tagged; also called Antibody 27
# B12: SRP1848-E02 (antibody, V domains shown)
# VH: B1 VH with R30G, D50E, F52Y, I54N, I57N, N58T, K104R, A105S
# VL: not shown
# notes: IgG with common trastuzumab LC, cell-free expressed, HIS- and FLAG-tagged; also called Antibody 32
# B13: SRP1848-D04 (antibody, V domains shown)
# VH: EVQLVESGGGLVQPGGSLRLSCAASGFNISHYSIHWVRQAPGKGLEWVGEIYPRDGITDYADSVKGRFTISADTSKNTAYLQMNSLSAEDTAVYYCARGYWFWRSGYGYYLDYWGQGTLVTVSS
# VL: not shown
# notes: IgG with common trastuzumab LC, cell-free expressed, HIS- and FLAG-tagged; also called Antibody 26
# B14: SRP1848-F01 (antibody, V domains shown)
# VH: B1 VH with K31T, D50S, I54N, I57T, N58T, S102A, K104R, G108S
# VL: not shown
# notes: IgG with common trastuzumab LC, cell-free expressed, HIS- and FLAG-tagged; also called Antibody 37
# B15: SRP1848-F02 (antibody, V domains shown)
# VH: B1 VH with K31T, D50S, I54N, I57T, N58T, F68L, K104Q
# VL: not shown
# notes: IgG with common trastuzumab LC, cell-free expressed, HIS- and FLAG-tagged; also called Antibody 38
# Biological target: T1, human FOLR1-HIS (human, UniProt P15328 25-233)
# T1 construct: Analyte of the Biacore assay; also called FolRα-ECD; extracellular domain of FOLR1; not shown: HIS tag
# T1 sequence (P15328 25-233 limits assumed): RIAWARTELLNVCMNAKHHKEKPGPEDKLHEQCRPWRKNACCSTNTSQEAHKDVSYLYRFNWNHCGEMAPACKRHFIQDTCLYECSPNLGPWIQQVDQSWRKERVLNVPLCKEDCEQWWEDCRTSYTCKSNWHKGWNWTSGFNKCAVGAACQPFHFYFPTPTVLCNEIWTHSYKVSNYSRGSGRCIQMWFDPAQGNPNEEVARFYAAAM
# Test: SPR (Biacore), antibody captured on anti-Fc, human FOLR1-HIS analyte, 25 C
# Method: Anti-Fc polyclonal antibodies were immobilized onto a CM5 chip (GE Life Sciences) using amine coupling chemistry (from Amine Coupling Kit, GE Life Sciences). The immobilization steps were carried out at a flow rate of 25 μL/min in 1×HBS-EP+ buffer (GE Life Sciences; 10× Stock diluted before use). […] Ethanolamine (1 M, pH 8.5) was injected for 7 min to block any remaining activated groups. An average of 12,000 response units (RU) of capture antibody was immobilized on each flow cell.
# Off-rate and kinetic binding experiments were performed at 25° C. using 1×HBS-EP+ buffer. […] Between each ligand capture and analyte binding cycle, regeneration was carried out using 2 injections of 10 mM glycine pH 2.0 for 30 seconds at 30 μL/min, followed by a 30 second buffer wash step.
# The data were fit with the Biacore T200 Evaluation software, using a 1:1 Langmuir binding model. KD (affinity, nM) was determined as a ratio of the kinetic rate constants calculated from the fits of the association and dissociation phases.
Binder,Kd,koff,kon
B1,4.29 nM,0.00454 s⁻¹,1.06e+06 M⁻¹ s⁻¹
B2,4.95 nM,0.00558 s⁻¹,1.13e+06 M⁻¹ s⁻¹
B3,2.41 nM,0.00205 s⁻¹,851000 M⁻¹ s⁻¹
B4,10.1 nM,0.0108 s⁻¹,1.07e+06 M⁻¹ s⁻¹
B5,3.51 nM,0.00251 s⁻¹,716000 M⁻¹ s⁻¹
B6,4.03 nM,0.00363 s⁻¹,899000 M⁻¹ s⁻¹
B7,4.7 nM,0.00511 s⁻¹,1.09e+06 M⁻¹ s⁻¹
B8,7.87 nM,0.00522 s⁻¹,664000 M⁻¹ s⁻¹
B9,2.21 nM,0.00189 s⁻¹,856000 M⁻¹ s⁻¹
B10,1.91 nM,0.0024 s⁻¹,1.25e+06 M⁻¹ s⁻¹
B11,2.93 nM,–,–
B12,6.21 nM,0.00707 s⁻¹,1.14e+06 M⁻¹ s⁻¹
B13,3.48 nM,0.00173 s⁻¹,497000 M⁻¹ s⁻¹
B14,3.18 nM,0.00362 s⁻¹,1.14e+06 M⁻¹ s⁻¹
B15,4.49 nM,0.00637 s⁻¹,1.42e+06 M⁻¹ s⁻¹
